Data: publication PMC3891831

Legend:
GST-MEIOB construct A [1] = biological target: T1, GST-MEIOB construct A (Mus musculus, UniProt Q9D513 136-307); experiment: EMSA
T1 sequence: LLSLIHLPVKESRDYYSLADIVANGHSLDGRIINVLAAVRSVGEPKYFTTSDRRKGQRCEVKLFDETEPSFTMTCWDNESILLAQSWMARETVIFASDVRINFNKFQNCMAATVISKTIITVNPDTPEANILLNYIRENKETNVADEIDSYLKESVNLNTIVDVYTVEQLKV

GST-MEIOB construct A [2] = biological target: T1, GST-MEIOB construct A; experiment: EMSA; remark: listed apart in the source

## GTGTGTGTGTGTGTGTGTGTGTGTGTGTGTGTGTGT (ssDNA) [d36GT]
GST-MEIOB construct A [1]
  Kd: 400 nM

B1: 3' flap (30 nt) (dsDNA)
DNA 1: CGATAGTCGGATCCTCTAGACAGCTCCATGGTGTGTGTGTGTGTGTGTGTGTGTGTGTGT
DNA 2: CATGGAGCTGTCTAGAGGATCCGACTATCG
GST-MEIOB construct A [2]
  binding result: binds

B2: dsDNA 36 bp (dsDNA)
DNA 1: GTGTGTGTGTGTGTGTGTGTGTGTGTGTGTGTGTGT
DNA 2: ACACACACACACACACACACACACACACACACACAC
GST-MEIOB construct A [2]
  binding result: no binding

B3: 5' flap (30 nt) (dsDNA)
DNA 1: GTGTGTGTGTGTGTGTGTGTGTGTGTGTGTGGACATCTTTGCCCACCTGCAGGTTCACCC
DNA 2: GGGTGAACCTGCAGGTGGGCAAAGATGTCC
GST-MEIOB construct A [2]
  binding result: binds
